{"source": "paper PMC11535027", "about": "“Structural basis of substrate recognition and allosteric activation of the proapoptotic mitochondrial HtrA2 protease” (Nature Communications, 2024)", "binders": {"B1": {"name": "isolated HtrA2-PDZ domain (residues 349–458) (domain or fragment, human, UniProt O43464 349-458, looked up)", "chain": "NSSSGISGSQRRYIGVMMLTLSPSILAELQLREPSFPDVQHGVLIHKVILGSPAHRAGLRPGDVILAIGEQMVQNAEDVYEAVRTQSQLAVQIRRGRETLTLYVTPEVTE", "notes": "HtrA2 (Omi), human mitochondrial serine protease, carboxy-terminal PDZ domain, residues 349-458 of the full-length protein of 458 residues; Constructs were either amino-terminally SUMO-His6-tagged (pET28b; tag removed with SENP1) or carboxy-terminally His6-tagged (pET21b); Isotope-labelled for NMR; also called ALVIT-PDZ; source: E. coli BL21 (λDE3), purified (Ni2+-HisTrap, gel filtration)"}}, "key": {"[1]": {"target": "the molecule itself", "assay": "SEC-MALS; HtrA2-PDZ loaded at 100-800 µM, Superdex Increase 200 10/300 GL, HBS (20 mM HEPES, 150 mM NaCl) pH 7.4, RT (~297 K), with CaCl2; monomer to dimer; KD given as a lower limit"}, "[2]": {"target": "the molecule itself", "assay": "SEC-MALS; HtrA2-PDZ loaded at 100-800 µM, Superdex Increase 200 10/300 GL, HBS (20 mM HEPES, 150 mM NaCl) pH 7.4, RT (~297 K), with CuCl2; monomer to dimer; KD given as a lower limit"}, "[3]": {"target": "the molecule itself", "assay": "SEC-MALS; HtrA2-PDZ loaded at 100-800 µM, Superdex Increase 200 10/300 GL, HBS (20 mM HEPES, 150 mM NaCl) pH 7.4, RT (~297 K), with ZnSO4; monomer to dimer; KD given as a lower limit"}, "[4]": {"target": "the molecule itself", "assay": "SEC-MALS; HtrA2-PDZ loaded at 100-800 µM, Superdex Increase 200 10/300 GL, HBS (20 mM HEPES, 150 mM NaCl) pH 7.4, RT (~297 K), with Mg2+ (+MgCl2 in the figure, MgSO4 in Supplementary Table 1); monomer to dimer; KD given as a lower limit"}, "[5]": {"target": "the molecule itself", "assay": "SEC-MALS; HtrA2^S306A loaded at 5-7.5 mg/ml, Superdex Increase 200 10/300 GL, HBS pH 7.4, RT (~297 K), with 25 mM CaCl2; trimer to hexamer (fitted with the monomer-dimer equation); KD given as a lower limit"}, "[6]": {"target": "the molecule itself", "assay": "SEC-MALS; HtrA2^S306A loaded at 4-7.5 mg/ml, Superdex Increase 200 10/300 GL, HBS pH 7.4, RT (~297 K), no added metal ions; trimer to hexamer (fitted with the monomer-dimer equation); KD given as a lower limit"}, "[7]": {"target": "T1, wild-type mature human HtrA2 (human)", "T1 construct": "made from the S306A construct that the methods name HtrA2^133–458; also called wild-type HtrA2; Omi; source: E. coli BL21 (λDE3), purified (Ni-HisTrap, gel filtration)", "T1 chain": "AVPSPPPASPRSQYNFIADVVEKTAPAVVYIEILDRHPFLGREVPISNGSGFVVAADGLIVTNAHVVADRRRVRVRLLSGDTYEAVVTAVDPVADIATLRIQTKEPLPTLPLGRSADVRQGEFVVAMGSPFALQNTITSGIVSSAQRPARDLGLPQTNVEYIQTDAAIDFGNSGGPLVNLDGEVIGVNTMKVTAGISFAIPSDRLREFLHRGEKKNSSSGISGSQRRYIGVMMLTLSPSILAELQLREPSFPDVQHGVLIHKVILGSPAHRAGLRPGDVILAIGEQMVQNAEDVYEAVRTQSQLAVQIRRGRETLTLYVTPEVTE", "assay": "fluorescence cleavage assay (cleavage rate of H2Opt against DD-PDZOpt concentration, one-site binding model); apparent; 510 nM wild-type HtrA2 (monomeric concentration), 20 µM H2Opt, DD-PDZOpt varied, 20 mM HEPES pH 7.4, no EDTA, 2 mM CaCl2, 313 K", "settings": "both partners purified"}, "[8]": {"target": "T1, wild-type mature human HtrA2", "assay": "fluorescence cleavage assay (cleavage rate of H2Opt against DD-PDZOpt concentration, one-site binding model); apparent; 510 nM wild-type HtrA2 (monomeric concentration), 20 µM H2Opt, DD-PDZOpt varied, 20 mM HEPES pH 7.4, no EDTA, 2 mM MgSO4, 313 K", "settings": "both partners purified"}, "[9]": {"target": "T1, wild-type mature human HtrA2", "assay": "fluorescence cleavage assay (cleavage rate of H2Opt against DD-PDZOpt concentration, one-site binding model); apparent; 510 nM wild-type HtrA2 (monomeric concentration), 20 µM H2Opt, DD-PDZOpt varied, 20 mM HEPES pH 7.4, 1 mM EDTA, 313 K; no additive", "settings": "both partners purified"}, "wild-type mature HtrA2": {"target": "T2, wild-type mature HtrA2 (human, UniProt O43464 134-458)", "T2 sequence (looked up)": "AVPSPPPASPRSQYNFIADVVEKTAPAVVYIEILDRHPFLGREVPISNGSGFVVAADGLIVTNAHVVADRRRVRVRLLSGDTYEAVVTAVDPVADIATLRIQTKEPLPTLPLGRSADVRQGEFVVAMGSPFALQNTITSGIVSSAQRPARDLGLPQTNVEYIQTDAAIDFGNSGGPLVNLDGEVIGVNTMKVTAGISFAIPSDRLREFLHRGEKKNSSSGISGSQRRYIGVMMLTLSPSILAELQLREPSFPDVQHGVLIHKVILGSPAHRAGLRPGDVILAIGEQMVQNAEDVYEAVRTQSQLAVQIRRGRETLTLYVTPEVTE", "assay": "cell-based or functional assay"}, "[10]": {"target": "B1", "assay": "NMR titration; DD-PDZOpt titrated to HtrA2-PDZ, 2D [15N,1H] and 2D [13C,1H] spectra (ALVIT methyl-labelled PDZ); line-shape analysis with TITAN, two-state ligand binding model; 298 K", "settings": "both partners purified"}, "[11]": {"target": "the molecule itself", "assay": "SEC-MALS; HtrA2-PDZ in the presence of the activating peptide DD-PDZOpt; dimer to monomers"}, "[12]": {"target": "the molecule itself", "assay": "SEC-MALS; HtrA2-PDZ in HBS (20 mM HEPES, 150 mM NaCl) pH 7.4 supplemented with Zn2+, compared with the non-supplemented buffer; dimer to monomers"}, "[13]": {"target": "the molecule itself", "assay": "SEC-MALS; HtrA2-PDZ at a range of concentrations, Superdex Increase 200 10/300 GL, PBS pH 7.4, RT (~297 K); KD fitted assuming a fast monomer-dimer equilibrium; dimer to monomers; lower limit because the concentration range was limited by solubility"}, "[14]": {"target": "the molecule itself", "assay": "SEC-MALS; HtrA2^S306A at increasing concentrations in HBS pH 7.4 without divalent ions; multimerization KD fitted assuming a fast monomer-dimer equilibrium"}}, "data": [{"binder": "isolated HtrA2-PDZ domain (residues 349–458) (domain or fragment, human, human HtrA2 (Omi), PDZ domain, residues 349-458; also called HtrA2^349-458; ALVIT-PDZ; source: E. coli BL21 (λDE3), purified (Ni-HisTrap, SENP1 cleavage, gel filtration); not shown: 6xHis-SUMO, N-terminal, cleaved) NSSSGISGSQRRYIGVMMLTLSPSILAELQLREPSFPDVQHGVLIHKVILGSPAHRAGLRPGDVILAIGEQMVQNAEDVYEAVRTQSQLAVQIRRGRETLTLYVTPEVTE", "values": [{"measurement": "Kd", "setting": "[1]", "result": "≥ 9200", "unit": "µM"}, {"measurement": "Kd", "setting": "[2]", "result": "≥ 4160", "unit": "µM"}, {"measurement": "Kd", "setting": "[3]", "result": "≥ 250", "unit": "µM"}, {"measurement": "Kd", "setting": "[4]", "result": "≥ 3520", "unit": "µM"}]}, {"binder": "full-length mature human HtrA2 without the active site serine (S306A) (enzyme, UniProt O43464 134-458, looked up, human HtrA2 (Omi), mature form; the methods name the construct HtrA2^133–458; the SEC-MALS constants are of the trimer to hexamer step; also called HtrA2^S306A; MALVI^proS-HtrA2^S306A; source: E. coli BL21 (λDE3), purified (Ni-HisTrap, gel filtration)) AVPSPPPASPRSQYNFIADVVEKTAPAVVYIEILDRHPFLGREVPISNGSGFVVAADGLIVTNAHVVADRRRVRVRLLSGDTYEAVVTAVDPVADIATLRIQTKEPLPTLPLGRSADVRQGEFVVAMGSPFALQNTITSGIVSSAQRPARDLGLPQTNVEYIQTDAAIDFGNAGGPLVNLDGEVIGVNTMKVTAGISFAIPSDRLREFLHRGEKKNSSSGISGSQRRYIGVMMLTLSPSILAELQLREPSFPDVQHGVLIHKVILGSPAHRAGLRPGDVILAIGEQMVQNAEDVYEAVRTQSQLAVQIRRGRETLTLYVTPEVTE", "values": [{"measurement": "Kd", "setting": "[5]", "result": "≥ 490", "unit": "µM"}, {"measurement": "Kd", "setting": "[6]", "result": "≥ 960", "unit": "µM"}]}, {"binder": "DDGQYYFV (source: synthetic peptide, bought: GenScript)", "note": "[DD-PDZOpt activating peptide, listing 1 of 2 here]", "values": [{"measurement": "Kd", "setting": "[7]", "result": 1.53, "unit": "µM"}, {"measurement": "Kd", "setting": "[8]", "result": 11.9, "unit": "µM"}, {"measurement": "Kd", "setting": "[9]", "result": 27.9, "unit": "µM"}]}, {"binder": "DDGQYYFV (source: synthetic peptide, bought: GenScript)", "note": "[DD-PDZOpt activating peptide, listing 2 of 2 here]", "values": [{"measurement": "apparent K_(D,app) of DD-PDZOpt from the H2Opt cleavage rate, with 2 mM Mg2+, as percent of that in standard assay buffer", "setting": "wild-type mature HtrA2", "result": "~50", "unit": "%"}, {"measurement": "Kd", "setting": "[10]", "result": "3.18 ± 0.9", "unit": "µM"}]}, {"binder": "B1", "values": [{"measurement": "Kd", "setting": "[11]", "result": "10300 ± 2500", "unit": "µM"}, {"measurement": "fold increase of the propensity to dimerize with Zn2+ against the non-supplemented buffer", "setting": "[12]", "result": "~50", "unit": "fold"}, {"measurement": "Kd", "setting": "[13]", "result": "≥ 13000", "unit": "µM"}]}, {"binder": "full-length mature human HtrA2^133–458 S306A (enzyme, UniProt O43464 133-458, looked up, HtrA2 (Omi), human, mature form, residues 133-458 of the full-length protein of 458 residues, active site serine replaced (S306A); The purchased construct is named pET21b-HtrA2, and pET21b constructs are said to be carboxy-terminally His6-tagged; The purification text also describes removal of a SUMO-His6 tag; The introduction says that the mature protein lacks the 133 amino-terminal residues, …) AAVPSPPPASPRSQYNFIADVVEKTAPAVVYIEILDRHPFLGREVPISNGSGFVVAADGLIVTNAHVVADRRRVRVRLLSGDTYEAVVTAVDPVADIATLRIQTKEPLPTLPLGRSADVRQGEFVVAMGSPFALQNTITSGIVSSAQRPARDLGLPQTNVEYIQTDAAIDFGNAGGPLVNLDGEVIGVNTMKVTAGISFAIPSDRLREFLHRGEKKNSSSGISGSQRRYIGVMMLTLSPSILAELQLREPSFPDVQHGVLIHKVILGSPAHRAGLRPGDVILAIGEQMVQNAEDVYEAVRTQSQLAVQIRRGRETLTLYVTPEVTE", "values": [{"measurement": "Kd", "setting": "[14]", "result": "500 to 1000", "unit": "µM"}]}]}
